Test results taken from PMC9092428, “Towards identification of protein–protein interaction stabilizers via inhibitory peptide-fragment hybrids using templated fragment ligation” (RSC Chemical Biology, 2022).
Values belong to the molecule of their own block, whether it stands above or below them. Square brackets hold non-standard residues; d marks the D form. Ends that are not written are not given here. Peptide text beside a SMILES is read from it. hydrazide = C-terminal Gly-hydrazide; hydrazone‑SIG17 = not defined here; hydrazone‑FC45 = not defined here; pS = N[C@@H](COP(=O)(O)O)C(=O)O; Ahx = NCCCCCC(=O)O

Legend:
[1] = molecular target: T1, 14-3-3η (Homo sapiens, UniProt Q04917); assay: Fluorescence anisotropy (FA) competition assay against tracer hDMX361–374^pSer367*; format: binding; conditions: 50 nM hDMX361–374^pSer367*
T1 construct: full length proteins were concentrated by centrifugation; His tag (pProEx HTb vector) (N); made in house; host or cells: E. coli BL21(DE3)
T1 sequence (Q04917 1-246): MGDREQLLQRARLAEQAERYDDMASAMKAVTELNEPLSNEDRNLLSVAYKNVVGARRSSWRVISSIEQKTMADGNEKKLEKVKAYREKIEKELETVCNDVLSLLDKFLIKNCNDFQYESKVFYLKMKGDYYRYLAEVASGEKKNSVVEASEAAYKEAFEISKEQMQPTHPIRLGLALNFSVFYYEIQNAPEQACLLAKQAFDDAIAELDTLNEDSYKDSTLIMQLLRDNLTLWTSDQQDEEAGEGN
Experimental: A fluorescence anisotropy (FA) competition assay was subsequently carried out using conditions previously found suitable for acylhydrazone formation (pH 6.5, 50 mM NH4OAc, 10 mM aniline) with added DTT (1 mM) to supress disulfide formation. hDMX361–369^pSer367Gly-hydrazide was used to compete with a tracer peptide: hDMX361–374^pSer367* for binding to 14-3-3η (Fig S2, ESI ^†). […] Initial attempts to screen in cocktails, established the aldehydes had no affect on their own (Fig. S3, ESI ^†). We then performed an assay where each aldehyde was screened individually with hDMX361–369^pSer367Gly-hydrazide. A decrease in anisotropy can be attributed to a particular hydrazone product, avoiding the additional step of product identification e.g. by HRMS, and, combines the equilibration step for hydrazone formation with 14-3-3η screening (Fig. 2a). […] To confirm the single-concentration results, a competition assay was performed (Fig. 2b). hDMX361–369^pSer367Gly-hydrazide was equilibrated with 5 equivalents of each aldehyde (product formation confirmed by LC-MS, see Fig. S4, ESI ^†), and serially diluted against the tracer peptide (hDMX361–374^pSer367*) and 14-3-3η protein.
Fig. 2 Dynamic ligation screening based on hDMX361–369^pSer367Gly-hydrazide (a) Anisotropy values of individually screened hydrazones (relative to buffer, zero activity negative control in grey), hDMX361–374^pSer367 (blue) and hDMX361–369^pSer367Gly-hydrazide (red) as positive controls with hits (hDMX361–369^pSer367Gly-hydrazone-FC45 and hDMX361–369^pSer367Gly-hydrazone-SIG17) highlighted in orange boxes (10 μM acetylated hydrazide peptide mixed with 5 eq. of aldehyde, 1 μM 14-3-3η, 50 nM hDMX361–374^pSer367*, 50 mM NH4OAc, 10 mM aniline and 1 mM DTT) (b) competition FA curves for hydrazones taken forward as hits (50 nM hDMX361–374^pSer367*, 1 μM 14-3-3η in 50 mM NH4OAc, 10 mM aniline and 1 mM DTT).
Fig. 3 Dynamic ligation screening based on hDMX361–370^pSer367Gly-hydrazide (a) anisotropy values of individually screened hydrazones (relative to buffer, zero activity negative control in grey), hDMX361–374^pSer367 (blue) and hDMX361–370^pSer367Gly-hydrazide (red) as positive controls with hits highlighted in black boxes (10 μM acetylated hydrazide peptide mixed with 5 eq. of aldehyde, 1 μM 14-3-3η, 50 nM hDMX361–374^pSer367*, 50 mM NH4OAc, 10 mM aniline and 1 mM DTT) (b) representative competition FA curves for hydrazones taken forwards as hits (50 nM hDMX361–374^pSer367*, 1 μM 14-3-3η in 50 mM NH4OAc, 10 mM aniline and 1 mM DTT). […]
Screening was performed using fluorescence anisotropy competition assay, in 50 mM NH4Ac pH 6.5 buffer containing 10 mM aniline, 1 mM DTT. […]

[2] = molecular target: T2, hDMX361–370pSer367Gly* 361-370 (Homo sapiens, UniProt O15151, also: FAM-Ahx, end not given here); assay: fluorescence anisotropy
T2 chain: {FAM-Ahx}-DCRRTI[pS]APVG

[3] = molecular target: T3, hDMX361–374pSer367 361-374 (Homo sapiens, UniProt O15151); assay: fluorescence anisotropy competition
T3 chain: DCRRTI[pS]APVVRPK

[4] = molecular target: T4, hDMX361–369pSer367Gly-hydrazone-FC45 361-369 (Homo sapiens, UniProt O15151, reading uncertain; also: printed as hDMX361–369pSer367Gly-hydrazone-FC45 361-369); assay: fluorescence anisotropy competition
T4 chain: DCRRTI[pS]APG-{hydrazone‑FC45}

[5] = molecular target: T5, hDMX361–369pSer367Gly-hydrazide 361-369 (Homo sapiens, UniProt O15151); assay: fluorescence anisotropy competition
T5 chain: DCRRTI[pS]APG-hydrazide

[6] = molecular target: T6, hDMX361–369pSer367Gly-hydrazone-SIG17 361-369 (Homo sapiens, UniProt O15151, reading uncertain; also: printed as hDMX361–369pSer367Gly-hydrazone-SIG17 361-369); assay: fluorescence anisotropy competition
T6 chain: DCRRTI[pS]APG-{hydrazone‑SIG17}

[7] = Fig. 2b experiment, hydrazide equilibrated with 5 eq. aldehyde, serially diluted, 1 μM 14-3-3η, 50 mM NH4OAc, 10 mM aniline, 1 mM DTT, pH 6.5

IC50 [1, 7]: 8.2 ± 1.3 µM
Molecule: CC[C@H](C)[C@H](NC(=O)[C@@H](NC(=O)[C@H](CCCNC(=N)N)NC(=O)[C@H](CCCNC(=N)N)NC(=O)[C@H](CS)NC(=O)[C@H](CC(=O)O)NC(C)=O)[C@@H](C)O)C(=O)N[C@@H](COP(=O)(O)O)C(=O)N[C@@H](C)C(=O)N1CCC[C@H]1C(=O)NCC(=O)NN [hDMX361–369^pSer367Gly-hydrazide] (HELM PEPTIDE1{[ac].D.C.R.R.T.I.[O=C([C@H](COP(=O)(O)O)N[*:1])[*:2]].A.P.G.[NN[*:1]]}$$$$V2.0)

IC50 [1, 7]: 10.4 ± 0.3 µM
Molecule: CC[C@H](C)[C@H](NC(=O)[C@@H](NC(=O)[C@H](CCCNC(=N)N)NC(=O)[C@H](CCCNC(=N)N)NC(=O)[C@H](CS)NC(=O)[C@H](CC(=O)O)NC(C)=O)[C@@H](C)O)C(=O)N[C@@H](COP(=O)(O)O)C(=O)N[C@@H](C)C(=O)N1CCC[C@H]1C(=O)NCC(=O)N/N=C/c1cc(Br)cc([N+](=O)[O-])c1 [hDMX361–369^pSer367Gly-hydrazone-FC45] (HELM PEPTIDE1{[ac].D.C.R.R.T.I.[O=C([C@H](COP(=O)(O)O)N[*:1])[*:2]].A.P.G.[O=[N+]([O-])c1cc(Br)cc(/C=N/N[*:1])c1]}$$$$V2.0)

IC50 ([1]; Fig. 3b experiment, 1 μM 14-3-3η in 50 mM NH4OAc, 10 mM aniline and 1 mM DTT): 8.5 ± 1.6 µM
Molecule: CC[C@H](C)[C@H](NC(=O)[C@@H](NC(=O)[C@H](CCCNC(=N)N)NC(=O)[C@H](CCCNC(=N)N)NC(=O)[C@H](CS)NC(=O)[C@H](CC(=O)O)NC(C)=O)[C@@H](C)O)C(=O)N[C@@H](COP(=O)(O)O)C(=O)N[C@@H](C)C(=O)N1CCC[C@H]1C(=O)N[C@H](C(=O)NCC(=O)NN)C(C)C [hDMX361–370^pSer367Gly-hydrazide] (HELM PEPTIDE1{[ac].D.C.R.R.T.I.[O=C([C@H](COP(=O)(O)O)N[*:1])[*:2]].A.P.V.G.[NN[*:1]]}$$$$V2.0)

Kd [2]: 0.172 µM
IC50 [3]: 8.5 µM
IC50 [4]: 10.4 µM
IC50 [5]: 8.2 µM
IC50 [6]: 13.7 µM
B1: 14-3-3η (protein)
chain: GDREQLLQRARLAEQAERYDDMASAMKAVTELNEPLSNEDRNLLSVAYKNVVGARRSSWRVISSIEQKTMADGNEKKLEKVKAYREKIEKELETVCNDVLSLLDKFLIKNCNDFQYESKVFYLKMKGDYYRYLAEVASGEKKNSVVEASEAAYKEAFEISKEQMQPTHPIRLGLALNFSVFYYEIQNAPEQACLLAKQAFDDAIAELDTLNEDSYKDSTLIMQLLRDNLTLWTSDQQDEEAGEGN
